Sequences and labels used below:
B1: death domain (DD) of human MORT-1, residues 92-208, Gal4 hybrid construct (other, not shown: large carriers)
chain: PGEEDLCAAFNVICDNVGKDWRRLARQLKVSDTKIDSIEDRYPRNLTERVRESLRIWKNTEKENATVAHLVGALRSCQMNLVADLVQEVQQARDLQNRSGAMSPMSWNSDASTSEAS
notes: Yeast two-hybrid fusion; also called MORT-1 DD; HF1
B3: death domain (DD) of human p55 TNF-R, residues 326-426, Gal4 hybrid construct (receptor, not shown: large carriers)
chain: DPATLYAVVENVPPLRWKEFVRRLGLSDHEIDRLELQNGRCLREAQYSMLATWRRRTPRREATLELLGRVLRDMDLLGCLEDIEEALCGPAALPPAPSLLR
notes: Yeast two-hybrid fusion; also called p55-R; p55 TNF-R DD
B5: death domain (DD) of human TRADD, residues 195-312, Gal4 hybrid construct (other, not shown: large carriers)
chain: PPPPAQTFLFQGQPVVNRPLSLKDQQTFARSVGLKWRKVGRSLQRGCRALRDPALDSLAYEYEREGLYEQAFQLLRRFVQAEGRRATLQRLVEALEENELTSLAEDLLGLTDPNGGLA
notes: Yeast two-hybrid fusion; also called TRADD DD

The target of data set [1] is T1, SNF 1 (UniProt P06782 1-633, limits assumed).
T1 sequence (looked up): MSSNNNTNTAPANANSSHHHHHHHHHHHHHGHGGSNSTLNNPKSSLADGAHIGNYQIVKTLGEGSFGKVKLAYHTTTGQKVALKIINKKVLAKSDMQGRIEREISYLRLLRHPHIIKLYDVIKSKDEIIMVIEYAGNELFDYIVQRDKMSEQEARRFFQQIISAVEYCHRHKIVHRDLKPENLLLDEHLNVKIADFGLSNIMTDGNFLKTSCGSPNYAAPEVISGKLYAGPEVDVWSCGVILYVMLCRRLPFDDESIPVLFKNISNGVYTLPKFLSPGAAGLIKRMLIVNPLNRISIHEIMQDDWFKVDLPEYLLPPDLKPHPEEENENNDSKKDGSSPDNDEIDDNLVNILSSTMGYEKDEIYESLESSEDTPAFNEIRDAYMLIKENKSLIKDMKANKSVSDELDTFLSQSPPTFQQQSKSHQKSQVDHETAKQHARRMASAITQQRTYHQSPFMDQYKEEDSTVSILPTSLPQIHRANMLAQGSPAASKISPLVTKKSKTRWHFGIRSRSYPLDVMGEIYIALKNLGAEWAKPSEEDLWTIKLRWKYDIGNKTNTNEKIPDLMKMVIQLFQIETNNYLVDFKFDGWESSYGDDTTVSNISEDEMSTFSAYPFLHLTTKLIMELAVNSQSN
Description: yeast two-hybrid specificity test (not shown).

The target in data set [2] is T2, intracellular domain of the human p75 TNF receptor (human, UniProt P20333 288-461, limits assumed).
T2 construct: domain: intracellular domain; Irrelevant control in the two-hybrid specificity test; construct not described; also called p75 IC
T2 sequence (looked up): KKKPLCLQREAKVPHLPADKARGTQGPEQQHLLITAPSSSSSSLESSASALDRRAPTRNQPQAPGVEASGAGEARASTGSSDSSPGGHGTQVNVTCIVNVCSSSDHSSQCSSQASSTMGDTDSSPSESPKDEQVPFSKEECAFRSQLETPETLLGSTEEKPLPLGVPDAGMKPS
Description: yeast two-hybrid specificity test (not shown).

The target of data set [3] is B5. Kind of data set: yeast two-hybrid, beta-galactosidase filter assay, SFY526. An excerpt:
(§1) Two-Hybrid β-Galactosidase Expression Tests. cDNA inserts were cloned by PCR, either from the full-length cDNAs cloned previously in our laboratory, or from purchased cDNA libraries. Residue numbering in the proteins encoded by the cDNA inserts are as in the Swiss-Prot Data Bank. Point mutants were produced by oligonucleotide-directed mutagenesis (Kunkel, 1994). β-galactosidase expression in yeasts (SFY526 reporter strain (Bartel et al, 1993)) transformed with these cDNAs in the pGBT-9 and pGAD-GH vectors (DNA binding domain (DBD) and activation domain (AD) constructs, respectively) was assessed by a filter assay (Boldin et al, 1995). When expressed in the pGAD-GH vector, RIP and its DD had some cytotoxic effect on the yeasts, manifested in a low yield of yeast colonies.
(§2) The interactions of the DDs of human p55 TNF-R, FAS-R, TRADD, MORT-1 and RIP were evaluated first by a yeast two-hybrid test. The cDNAs encoding these domains were expressed as fusion proteins with the Gal4 DNA binding and activation domains (DBD and AD constructs) in the yeast SFY526 reporter strain, and the binding of these fusion proteins to each other was assessed by determining β-galactosidase expression by the yeasts. The results of these tests are summarized in FIG. 1 and illustrated diagrammatically in FIG. 3.

Data set [4] deals with the molecule itself. Kind of data set: yeast two-hybrid, self-association, beta-galactosidase filter assay, SFY526.
Text: as §1, §2

Data set [5] concerns the target B3. Kind of data set: yeast two-hybrid specificity test (not shown).
In data set [6] the target is B1. Description: yeast two-hybrid specificity test (not shown).
Data set [7] concerns the target B5. Description: yeast two-hybrid specificity test (not shown).
Data set [8] concerns the target B5. Description: yeast two-hybrid (summing up of Example 2).
Text: as §1, §2

Data set [9] concerns the target B1. Description: yeast two-hybrid, beta-galactosidase filter assay, SFY526.
Text: as §1, §2

Data set [10] addresses B1. Kind of data set: yeast two-hybrid, beta-galactosidase filter assay.
Text: (§3) FIG. 2 depicts interactions of the ‘death domains’ of the P55-R, Fas/APOI, MORT-1, TRADD and. RIP in a yeast two-hybrid test, and the effect of lbr^cg-like mutations in these proteins on their interactions. Assessment of the interaction of Gal4 hybrid constructs encompassing the following human proteins, truncated upstream to their DD motifs: p55-R (residues 326-426), FAS-R (residues 210-319), MORT-1 (residues 92-208), TRADD (residues 195-312) and RIP (residues 261-372), as well as of the following points mutants of these proteins: p55-R L35IN, FAS-R V238N, MORT-1 V121N, and RIP F308N, whose mutation sites within the DDs correspond to that found in the FAS-R of the lpr^cg mice. Each cDNA insert was introduced both into the Gal4 DNA binding domain (DBD) and the Gal4 activation domain (AD) constructs (pGBT9 abd pGAD-GH), and the binding of the inserts in both constructs to all other inserts within transfected SFY526 yeasts was assessed by a β-galactosidase expression filter assay. The results are presented in terms of the time required for development of strong color. ND—not done.
as §1

The target of data set [11] is B5. Description: yeast two-hybrid, beta-galactosidase filter assay.
Text: as §3, §1

Data set [12] concerns the molecule itself. Description: yeast two-hybrid, beta-galactosidase filter assay.
Text: as §3, §1

Data set [13] deals with the molecule itself. Description: yeast two-hybrid, beta-galactosidase filter assay, SFY526.
Text: as §1, §2

For the molecule B1, the binding result in data set [1] is “no binding”; in data set [2], “no binding”; in data set [3] it was “binds”; in [4] it was “no binding”.

B2: DD of the rat low-affinity NGF receptor (receptor, UniProt P07174 340-425, looked up)
chain: LPLTKREEVEKLLNGDTWRHLAGELGYQPEHIDSFTHEACPVRALLASWGAQDSATLDALLAALRRIQRADIVESLCSESTATSPV
notes: domain: DD; Control in the two-hybrid specificity test; construct not described; also called rat NGF-R DD
Regarding B2, the binding result in [5], in data set [6] and in data set [7] was “no binding” in each case.
For B3, the binding result in data set [8] was “binds”; in [1], “no binding”; in data set [2] it was “no binding”; in data set [9] it was “no binding”.

B4: human p55 TNF-R DD (residues 326-426) point mutant L351N, Gal4 hybrid construct (receptor, not shown: large carriers)
chain: DPATLYAVVENVPPLRWKEFVRRLGNSDHEIDRLELQNGRCLREAQYSMLATWRRRTPRREATLELLGRVLRDMDLLGCLEDIEEALCGPAALPPAPSLLR
notes: Legend prints 'L35IN'; also called p55-R L35IN; p55 TNF-R (L351N)
Regarding B4, the binding result in data set [10], in [11] and in [12] was “no binding” each time.
B5: the values for the binding result in data set [1], in data set [2] and in [13] were “no binding”, “no binding” and “binds”, respectively.

The values are drawn from US20070166787A1 (YEDA RESEARCH AND DEVELOPMENT, published 2007).
